Measured values from patent US20240368233A1 (University of Washington, published 2024).

B1: 274A53 (designed binder)
chain: TTNFHLINGSEEARQLIEKAVRAISKKEGTEVHFEKSDGTLEIRVKNLHEKREREIKKVIELILEVAAAERIVRERPGSNLAKKALEIILRAAEELAKADVDAALEAAVRAAEKVVREQPGSNLAKKALEIILRAAEELAKLPDPEALKEAVKAAEKVVREQPGSELAKKALEIIERAAEELKKSPDPEAQKEAKKAEQKVREESGSHHWGSGLNDIFEAQKIEWHEGSHHHHHH
notes: also called LHD274A DHR53 stop; LHD274A53
B2: 101B62 (designed binder)
chain: HHHHHHGSGLNDIFEAQKIEWHEAENLYFQSGSNDEKRKRAEKALQRAQEAEKKGDVEEAVRAAQEAVRAAKESGDNDVLRKVAEQALRIAKEAEKQGNVEVAVKAARVAVEAAKQAGDNDVLRKVAEQALRIAKEALKQGNVDVAAKAAQVAEEAAKQAGDQDVLRKVKEVQIEIVLAAIELTVRKMGVTMETHRSGREVKVVIKGLHESQQEQLLEDVLRIAELAGVRVRIRFKGDTVTIVVRG
notes: also called LHD101B62

Key:
[1] = target: T1, LHD274 B62; test: SEC binding assay (Superdex 200, normalised A230) of A, B and the mixture AB
T1 construct: also called LHD274 B DHR62 C
T1 single chain, LHD274 chain B fused to DHR62: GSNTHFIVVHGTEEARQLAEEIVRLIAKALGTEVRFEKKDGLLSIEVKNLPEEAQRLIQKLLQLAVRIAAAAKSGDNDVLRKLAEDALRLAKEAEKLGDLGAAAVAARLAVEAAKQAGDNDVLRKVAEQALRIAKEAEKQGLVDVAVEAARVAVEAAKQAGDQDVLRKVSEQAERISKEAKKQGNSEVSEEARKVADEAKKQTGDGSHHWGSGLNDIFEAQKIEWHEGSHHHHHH

[2] = target: the molecule itself; test: SEC titration (Superdex 200, normalised A230) of 274A53 and 29A53 alone; self-association
[3] = target: T2, 274B53; test: SEC titration (Superdex 200, normalised A230) of the complexes 274A53/274B53 and 29A53/29B53
T2 construct: also called LHD274B DHR53 stop
T2 chain: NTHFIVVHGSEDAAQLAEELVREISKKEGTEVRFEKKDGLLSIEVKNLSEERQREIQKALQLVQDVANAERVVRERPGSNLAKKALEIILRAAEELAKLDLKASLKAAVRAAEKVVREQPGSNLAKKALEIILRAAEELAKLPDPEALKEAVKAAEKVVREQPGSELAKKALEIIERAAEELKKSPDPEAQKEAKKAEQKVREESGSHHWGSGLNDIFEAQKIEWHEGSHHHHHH

[4] = target: T3, DFA0; test: SEC of mixed components; linear tetramer listed in Table 6, neighbours in the chain
T3 construct: Bivalent connector
T3 chain: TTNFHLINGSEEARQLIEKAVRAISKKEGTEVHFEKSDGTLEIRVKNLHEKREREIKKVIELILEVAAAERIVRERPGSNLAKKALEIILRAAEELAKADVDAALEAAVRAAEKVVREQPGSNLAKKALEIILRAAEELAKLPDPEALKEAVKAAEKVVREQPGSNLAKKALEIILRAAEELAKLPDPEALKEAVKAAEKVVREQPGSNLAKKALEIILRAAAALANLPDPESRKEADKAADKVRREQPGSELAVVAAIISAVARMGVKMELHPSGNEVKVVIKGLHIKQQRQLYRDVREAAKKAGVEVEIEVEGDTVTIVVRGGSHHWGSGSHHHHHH

[5] = target: T4, LHD101 chainA; test: BLI steady-state titration, biotinylated unfused LHD101A on a streptavidin sensor
T4 construct: also called LHD101A
T4 chain: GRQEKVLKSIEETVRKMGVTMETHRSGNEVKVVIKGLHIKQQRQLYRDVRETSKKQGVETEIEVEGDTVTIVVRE
Text: FIG. 8A-E. Characterization LHD binding in vitro. A: Designed models heterodimers (top row). Middle row, SEC binding experiments performed on a Superdex™ 75 column. Bottom row, biolayer interferometry kinetic binding traces. […] C: Kinetic binding traces from BLI. Equilibrium responses were used to fit equilibrium binding curves D: Equilibrium binding curves of LHDs from biolayer interferometry binding assays with data from C. […] Biotinylated unfused protomers were immobilized on streptavidin coated biosensors.
Biolayer interferometry experiments were performed on an OctetRED96 BLI system (ForteBio, Menlo Park, CA). Streptavidin coated biosensors were first equilibrated for at least 10 minutes in Octet buffer (10 mM HEPES pH 7.4, 150 mM NaCl, 3 mM EDTA, 0.05% Surfactant P20) supplemented with 1 mg/ml Bovine Serum Albumin (SigmaAldrich). Enzymatically biotinylated designs were immobilized onto the biosensors by dipping the biosensors into a solution with 10-50 nM protein for 30-120 s. This was followed by dipping in fresh octet buffer to establish a baseline for 120 s. Titration experiments were performed at 25° C. while rotating at 1,000 r.p.m. […]

| Binder | binding result [1] | binding result [2] | binding result [3] | binding result [4] | binding result [5] |
| --- | --- | --- | --- | --- | --- |
| B1 | binds | no binding (tested: 8.0 uM) | binds | – | – |
| B2 | – | – | – | binds | binds |
